“Also recorded” adds a separate entry of the source.

Assay [1] deals with rat carotid artery thrombosis. The assay can be described thus: Rat carotid artery thrombosis model, humanized mAbs, Example 8. Type of assay: in vivo. As to conditions: 3.0 mg/kg i.v. bolus, 60 minutes after onset of injury. The protocol: In order to evaluate the efficacy of humanized anti-Factor IX antibodies in prevention of arterial thrombosis, the rat carotid artery thrombosis model as described above in Example 3 was used. Baseline parameters were established for carotid blood flow, arterial pressure, heart rate, vessel patency and activated partial thromboplastin time (aPTT). Fifteen minutes thereafter, carotid injury was effected for […]. The parameters were determined 60 minutes after onset of carotid injury. Carotid thrombus was also extracted from the carotid artery and weighed.
All agents were administered intravenously 15 minutes before the onset of carotid injury. The following treatments were examined and compared to the anti-Factor IX mAb BC2.

The target in a further assay is T1, rhFIX (Homo sapiens, UniProt P00740, T194A).
T1 construct: purchased Genetics Institute
The experiment in a line: Titration microcalorimetry of rhFIX binding. As for the experimental part: The interactions between rhFIX and SB 249417 BC2 and other humanized constructs were characterized by titration microcalorimetry, which measures binding interactions in solution from the intrinsic heat of binding. Nine injections of 106 uM FIX were made into the calorimeter containing 2 uM mAb SB 249417. Binding was detected in the first 4 injections as exothermic heats. At the last 5 injections the mAb binding sites were saturated with FIX and only background heats of mixing were observed. […] Nonlinear least squares analysis of the data yield the binding affinity.
The data in Table 3 indicate that the affinities of SB 249417, BC2 and its other humanized constructs are within error (a factor of 2) the same.

Another assay concerns Factor IX gla domain. The assay can be described thus: Epitope mapping of BC2 with Factor IX/Factor VII chimeric constructs. It counts as binding. The protocol: A library of chimeric constructs composed of sequences of Factor IX spliced into the framework of the homologous protein Factor VII was constructed and used to map the epitope for the Factor IX BC2 mAb. See Cheung et al., Thromb. Res. 80, 419-427 (1995). Binding was measured using a BiaCore 2000 surface plasmon resonance device. The BC2 antibody was coupled directly to the chip using the NHS/EDC reaction. Binding was measured by 2 min of contact time at 20 uL/min with 200 nM of each of the given constructs in 25 mM MOPS, pH 7.4, 0.15 M NaCl, 5 mM CaCl2. Dissociation was monitored for 3 min using the same buffer with no protein. No binding was detected to the wild type construct in the presence of 50 mM EDTA.

Assay [2] concerns Cynomologous monkey Factor IX. The experiment in a line: Species cross-reactivity, monkey Factor IX. It counts as binding.
The target in assay [3] is T2, Factor IXa in Xase complex (Homo sapiens, UniProt P00740).
T2 construct: as well as the active protease, Factor IXa
The assay can be described thus: Inhibition of IXa activity in Xase complex (Table I). It counts as biochemical.

Assay [4] has as its target T3, Recombinant human Factor IX (rhFIX) (Homo sapiens, UniProt P00740, T194A).
T3 construct: purchased Genetics Institute
The experiment in a line: BIAcore kinetics of Factor IX binding to mAb on protein A surface. As to conditions: rhFIX 49 nM, 5 mM Ca2+, biosensor. The protocol: The kinetics of Factor IX binding to SB 249417 was assessed by BIAcore analysis with antibody bound to an immobilized protein A surface. Recombinant human Factor IX (rhFIX, Genetics Institute) at 49 nM was used and measurements performed in the presence of 5 mM Ca^2+. The interaction was characterized by rapid association, kass 2.0×10^5 M^−1 s^−1 and relatively slow off-rate, kdiss=4.1×10^−4 s^−1.

Assay [5] concerns the target T4, Factor IX (Homo sapiens, UniProt P00740). The assay can be described thus: aPTT clotting time of human plasma, anti-Factor IX mAbs. It counts as biochemical. Further details: Human plasma samples were either freshly drawn and kept on ice or reconstituted; host or cells: human plasma. As for the experimental part: The effect of increasing concentrations of anti-coagulation factor antibodies on activated partial thromboplastin time (aPTT) of human plasma was determined in a fibrometer (Becton-Dickinson Microbiology Systems, Cockeysville, Md.) using Baxter reference procedure LIB0293-J, 3/93 revision (Baxter Scientific, Edison, N.J.).
Prior to the start of the experiment, 2 to 3 mL of 0.02 M CaCl2 in a 5 mL tube were placed into the heating chamber of the fibrometer. Human plasma samples were either freshly drawn and kept on ice or reconstituted per the manufacturer's recommendation from Hemostasis Reference Plasma (American Diagnostics, Greenwich, Conn.).
Unfractionated heparin from porcine intestinal mucosa (Sigma Chemical, St. Louis, Mo.), low molecular weight heparin from porcine intestinal mucosa (Lovenox®, enoxaparin sodium, Rhone-Poulenc Rorer Pharmaceuticals, Collegeville, Pa.) or mAb anticoagulants were prepared as approximately 50 uM stock solutions and serially diluted directly into the test plasma. A blank containing plasma without anticoagulant was included as a reference.
Two fibroTube® fibrometer cups were filled with 100 ul test plasma or 100 ul test plasma with anticoagulant and 125 ul of actin activated cephaloplastin reagent (Actin reagent, from rabbit brain cephalin in ellagic acid, available from Baxter Scientific), respectively and placed in the fibrometer wells at 37° C.
After one minute, 100 ul of actin reagent was transferred to a plasma-containing cup and the contents mixed several times with a pipette. After a 3 minute incubation, 100 ul of CaCl2, prewarmed at 37° C., was added to the plasma-actin reagent mixture using a Automatic Pipette/Timer-trigger (Becton-Dickinson). The clotting times were noted and the results in FIG. 1 are presented as clotting times as a function of final concentrations of anticoagulant in the total assay volume of 300 ul. The nominal concentration of Factor IX in the assay is 30-40 nM.
Target sequence in this assay (P00740 47-461): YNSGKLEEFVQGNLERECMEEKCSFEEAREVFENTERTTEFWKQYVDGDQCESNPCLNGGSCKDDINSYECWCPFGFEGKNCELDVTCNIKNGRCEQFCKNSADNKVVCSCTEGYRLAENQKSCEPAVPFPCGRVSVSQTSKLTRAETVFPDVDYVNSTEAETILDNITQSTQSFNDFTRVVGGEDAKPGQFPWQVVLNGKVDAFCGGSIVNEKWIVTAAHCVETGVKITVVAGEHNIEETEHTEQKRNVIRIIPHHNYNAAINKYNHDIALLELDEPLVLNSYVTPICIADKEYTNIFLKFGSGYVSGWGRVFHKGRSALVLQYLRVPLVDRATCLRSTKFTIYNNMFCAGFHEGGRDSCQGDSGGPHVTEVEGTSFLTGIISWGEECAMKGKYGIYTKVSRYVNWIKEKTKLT

For assay [6], the target named is Factor IX to IXa conversion (Homo sapiens, UniProt P00740). The experiment in a line: Inhibition of Factor IX to IXa conversion (Table I). Type of assay: biochemical.
Assay [7] addresses T4, Factor IX. The experiment in a line: Binding to Factor IX (in vitro properties, Table I). Further details: Human plasma samples were either freshly drawn and kept on ice or reconstituted; host or cells: human plasma. As for the experimental part:
Approximately two weeks later, 1.0 mL of hybridoma medium was removed from each well and tested for anti-Factor IX antibodies using an ELISA assay as described by Jenny, R. J. et al. in Meth. Enzymol. 222, 400-416 (1993). Briefly, factor IX was immmobilized onto plastic wells of 96-well microtiter plates. Hybridoma supernatants or dilutions of purified antibody were then incubated in the wells. The wells were washed and the presence of antibody-antigen complexes detected with a goat anti-murine immunoglobulin second antibody conjugated to horseradish peroxidase and the chromogenic substrate o-dianisidine.
Target sequence in this assay (P00740 47-461): as above

The next assay concerns the target T5, Factor IXa (Homo sapiens, UniProt P00740).
T5 construct: as well as the active protease, Factor IXa
The assay can be described thus: Binding to Factor IXa (Table I).

The target in another assay is rat Factor IX (Rattus norvegicus, UniProt P16296). The experiment in a line: Species cross-reactivity, rat Factor IX. It counts as binding.
For assay [8], the system named is rat carotid artery thrombosis. The assay can be described thus: Rat carotid artery thrombosis model (FeCl3 injury), Example 3. Type of assay: in vivo. An excerpt:
In order to evaluate the efficacy of anti-Factor IX antibodies in prevention of arterial thrombosis, the rat carotid artery thrombosis model as reported by Schumacher et al. in J. Cardio. Pharm. 22, 526-533 (1993) was adapted. This model consists of segmental injury to the carotid endothelium by oxygen radicals generated by FeCl3 solution applied on the surface of the carotid artery.
In brief, rats were anesthetized with pentobarbitone sodium, the jugular vein cannulated for intravenous injections and the left femoral artery cannulated for blood pressure and heart rate monitoring. The carotid artery was isolated by aseptic technique via a surgical incision in the neck and equipped with a magnetic flow probe for blood flow measurement. After a period of stabilization, baseline parameters were established for the following variables: carotid blood flow, arterial pressure, heart rate, activated partial thromboplastin time (aPTT) and prothrombin time (PT). Thereafter, a premeasured Whatman filter paper soaked in 50% FeCl3 solution was placed on the carotid artery for 15 minutes for complete injury of the underlying endothelial cells. After removal of the FeCl3 soaked paper, the experiment was followed to completion over 60 minutes. At the end of the experiment, the carotid thrombus was extracted from the carotid artery and weighed.
All agents were administered 15 minutes prior to the onset of carotid injury. The following treatments were examined and compared to the Factor IX mAb BC2.
1. Heparin: 15, 30, 60 or 120 U/kg bolus, followed by infusion of 0.5, 1, 2 or 4 U/kg/min, respectively over 60 minutes
2. Acetylsalicylic acid (ASA, aspirin): 5 mg/kg bolus
3. Anti-Factor IX mAb BC2: 1, 3 or 6 mg/kg bolus, followed by infusion 0.3, 1, or 2 ug/kg/min, respectively over 60 minutes
4. Heparin: 30U/kg bolus+lU/kg/min+ASA at 5 mg/kg
5. Anti-Factor IX mAb BC2: 1 mg/kg+0.3 ug/kg/min+ASA at 5 mg/kg

Assay [9] concerns the target T4, Factor IX. The assay can be described thus: Cofactor requirement for mAb activity (Table I).
Target sequence in this assay (P00740 29-461 limits assumed): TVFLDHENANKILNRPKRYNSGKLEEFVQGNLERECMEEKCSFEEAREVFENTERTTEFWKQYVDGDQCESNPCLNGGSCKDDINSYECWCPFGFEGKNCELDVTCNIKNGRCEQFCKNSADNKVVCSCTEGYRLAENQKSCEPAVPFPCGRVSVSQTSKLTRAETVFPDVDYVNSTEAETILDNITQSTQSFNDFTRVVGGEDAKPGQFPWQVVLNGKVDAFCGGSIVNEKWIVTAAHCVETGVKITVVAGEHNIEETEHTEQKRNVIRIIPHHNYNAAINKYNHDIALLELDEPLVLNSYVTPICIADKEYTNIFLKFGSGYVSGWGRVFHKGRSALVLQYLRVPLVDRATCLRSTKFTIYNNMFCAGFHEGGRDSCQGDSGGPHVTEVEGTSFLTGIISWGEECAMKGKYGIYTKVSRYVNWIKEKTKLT

rat Factor IX, sequence (P16296 40-462): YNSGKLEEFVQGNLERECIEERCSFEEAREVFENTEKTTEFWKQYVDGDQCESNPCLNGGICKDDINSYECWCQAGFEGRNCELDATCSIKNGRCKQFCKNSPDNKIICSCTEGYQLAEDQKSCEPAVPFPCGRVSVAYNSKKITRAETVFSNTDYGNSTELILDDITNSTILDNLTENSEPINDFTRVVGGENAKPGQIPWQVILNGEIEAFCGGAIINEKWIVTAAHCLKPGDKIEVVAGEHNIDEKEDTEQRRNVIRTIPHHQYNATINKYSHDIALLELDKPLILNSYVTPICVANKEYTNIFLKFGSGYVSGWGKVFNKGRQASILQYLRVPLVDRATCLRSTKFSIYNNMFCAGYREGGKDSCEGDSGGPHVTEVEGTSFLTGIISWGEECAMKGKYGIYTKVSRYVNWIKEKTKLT
T5 sequence (P00740 47-191 limits assumed): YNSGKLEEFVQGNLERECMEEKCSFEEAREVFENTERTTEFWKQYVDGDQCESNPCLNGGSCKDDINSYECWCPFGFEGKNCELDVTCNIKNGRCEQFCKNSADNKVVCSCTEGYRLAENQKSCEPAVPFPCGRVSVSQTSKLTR
T5 sequence (P00740 227-461 limits assumed): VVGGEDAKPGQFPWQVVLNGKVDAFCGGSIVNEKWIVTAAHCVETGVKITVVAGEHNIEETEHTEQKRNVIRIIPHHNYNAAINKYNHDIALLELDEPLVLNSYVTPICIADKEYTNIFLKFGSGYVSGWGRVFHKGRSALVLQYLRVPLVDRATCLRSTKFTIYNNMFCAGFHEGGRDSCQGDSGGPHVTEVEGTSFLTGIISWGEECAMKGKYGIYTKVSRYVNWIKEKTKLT
T2 sequence (P00740 47-191 limits assumed): as the sequence (P00740 47-191 limits assumed) above
T2 sequence (P00740 227-461 limits assumed): as the sequence (P00740 227-461 limits assumed) above
T3 sequence (P00740 47-461 T194A): as the sequence (P00740 47-461) above, with T148A counted along it
Factor IX to IXa conversion, sequence (P00740 29-461 limits assumed): as the sequence (P00740 29-461 limits assumed) above
T1 sequence (P00740 47-461 T194A): as the sequence (P00740 47-461) above, with T148A counted along it

B1: SB 249417: humanized anti-Factor IX mAb, heavy chain F9HZHC 1-1 (SEQ ID NO: 52), light chain F9HZLC 2-0 (SEQ ID NO: 74) (antibody, V domains shown)
VH: QVQLVQSGSELKKPGASVKVSCKASGYTFTNYGMNWVRQAPGQGLKWMGWINTRNGKSTYVDDFKGRFVFSLDSSVSTAYLQISSLKADDTAVYYCTREGNMDGYFPFTYWGQGTLVTVSS
VL: QIVLTQSPSSLSASVGDRVTITCRASSSVNYMHWYQQKPGKAPKPWIYATSNLASGVPSRFSGSGSGTDYTFTISSLQPEDIATYYCQQWSINPRTFGQGTKVEIKR
Regarding B1, the “effect on aPTT (FIG. 8)” value in assay [1] is given as “modest effect”. Moreover, the “Stoichiometry of Factor IX Binding, Isothermal Titration Calorimetry” value with rhFIX was 1.5 moles Factor IX: 1 mole mAb.

B2: BC2: murine monoclonal antibody directed against human Factor IX and/or Factor IXa, isotype IgG2a (antibody, V domains shown)
VH: QIQLVQSGPELKKPGETVKISCKASGYTFTNYGMNWVKQAPGKGLKWMGWINTRNGKSTYVDDFKGRFAFSLESSASTANLQIDNLKDEDTATYFCTREGNMDGYFPFTYWGQGTLVTVSA
VL: QIVLSQSPAILSASPGEKVTMTCRASSSVNYMHWYQQKPGSSPKPWIYATSNLASGVPARFSGSGSGTSYSLTISRVEAEDAATYYCQQWSINPRTFGGGTKLEIKR
With B2, in the assay with Factor IX gla domain, the epitope entry was “residues 3-11 of the Factor IX gla domain”. Further, in assay [2], the “Species cross-reactivity: monkey Factor IX” value is “cross-react”. For the same molecule, the “Inhibits IXa activity in Xase complex” value in assay [3] was “inhibits Factor IXa activity and yes”. Also, in assay [4], the kass was determined as 480000 M⁻¹ s⁻¹ and the kdiss was 0.00091 s⁻¹. Besides, in the assay with Factor IX [5] (Table I, the values are: max aPTT as % of normal aPTT), the [formula] (row head is a formula not shown) was determined as 350%. Also, in the assay with Factor IX [5] (normal human plasma, FIG. 1), the “aPTT at saturating concentrations of mAb” value is given as “about 90 sec” and the “increase of the aPTT at saturating concentrations” value is 3.5 fold. Moreover, the “maximal value of clot time in the aPTT assay” value with Factor IX [5] (self-limiting effect, summary description) is listed as “about 100 seconds”. For the same molecule, the “Inhibits IX to IXa conversion” value in assay [6] is “yes”. The “Binds Factor IX” value with Factor IX [7] is listed as “yes”. For the same molecule, in the assay with Factor IXa, the “Binds Factor IXa” value is “binds Factor IXa and yes”. In the assay with rat Factor IX, the “Species cross-reactivity: rat Factor IX” value is reported as “cross-reacted; also recorded: species cross-reactivity with rat”. Besides, in assay [8], the “effect on prothrombin time (PT) at 60 minutes (FIG. 5)” value is on record as “not by any of the Factor IX mAb doses” and the “effect on thrombus weight (FIG. 7)” value is on record as “dose-dependently reduced”. The “effect on carotid artery occlusion” value in assay [8] (Factor IX mAb at the two higher doses (3, 6 mg/kg bolus + infusion)) is listed as “completely blocked”. Moreover, the “effect on thrombus formation” value in assay [8] (high dose of Factor IX mAb) was “virtually prevented completely”. Further, in [8] (highest dose of Factor IX mAb (6 mg/kg bolus + 2 ug/kg/min)), the “increase in clotting time (aPTT)” value is listed as no more than 3 fold. In addition, the “effect on carotid artery occlusion (patency)” value in assay [8] (lower dose of Factor IX mAb alone (1 mg/kg + 0.3 ug/kg/min)) is listed as “largely failed to secure patency”. For the same molecule, in assay [8] (regimens of b146-b150, given 15 minutes before injury), the “effect on aPTT at 60 minutes (FIG. 4)” value is “modest effect”. The Cofactor requirement entry with Factor IX [9] was “Divalent metal cofactors are required for activity; also recorded: Ca^2+ > Mn^2+”.

The values are drawn from patent publication US20020146411A1, “Anticoagulant agents useful in treatment of thrombosis” (SmithKline Beecham Corporation, priority 1996, published 2002).
